Results reported in US8697416B2, “Recombinant polynucleotide, host cells containing the same and a process for producing a protein having aldolase activity” (Ajinomoto Co., Inc., priority 2002, dated 2014).
Where two headings read alike, the source gives them in different places.

Key:
[1] = Synthesis of IHOG from indole-3-pyruvic acid and pyruvic acid using purified PtALD and PcALD; assay type: biochemical; settings: PtALD 1.8 U/ml, PcALD 0.8 U/ml, pH 8.5, 33° C., 4 hours
Description: 4-(Indol-3-ylmethyl)-4-hydroxy-2-oxoglutarate (IHOG) was synthesized from indole-3-pyruvic acid and pyruvic acid using the PtALD and PcALD produced in Examples 4 and 5 as enzyme sources. The amount of IHOG was determined by HPLC analysis using the “Inertsil ODS-2” (GL Sciences Inc., 5 μm, 4.6×250 mm). The analysis conditions are as indicated below.
Mobile phase: 40% (v/v) acetonitrile/5 mM tetrabutyl
ammonium dihydrogen phosphate solution
Column temperature: 40° C.
PtALD and PcALD were added at 1.8 U/ml and 0.8 U/ml, respectively, to a reaction solution comprised of 100 mM Hepes-KOH (pH 8.5), 50 mM indole-3-pyruvic acid, 250 mM pyruvic acid and 1 mM to 5 mM MgCl2, and allowed to react at 33° C. for 4 hours. The enzyme reaction solution was suitably diluted and the amount of IHOG formed was quantified. As a result, IHOG was able to be formed from the aldolases.

[2] = Optimum pH of PtALD aldolase activity; assay type: biochemical; settings: at 33° C.
Description: More specifically, aldolase activity may be estimated according to the following steps of adding aldolase to a reaction solution composed of 100 mM buffer, 50 mM indole-3-pyruvic acid, 250 mM pyruvic acid, 1 mM MgCl2 and 1% (v/v) toluene; and shaking while reaction at 33° C. for 4 hours; and then quantifying the amount of IHOG formed by HPLC.

[3] = Temperature stability of PtALD (residual activity); assay type: physicochemical; settings: 30 minutes incubation, pH 7.0 and pH 9.0
Description: Residual activity was measured under the basic measurement conditions after incubating PtALD at 25 to 70° C. for 30 minutes in 100 mM potassium phosphate buffer (pH 7.0) and 100 mM glycine-NaOH buffer (pH 9.0).

[4] = Aldol condensation activity of PtALD using acetaldehyde and α-ketobutyrate (ESI-MS); assay type: biochemical; settings: 50 mM acetoaldehyde, 250 mM α-ketobutyrate, 0.1 mg/ml PtALD, pH 9, 33° C., 16 hours
Description: The aldol condensation activity of the PtALD prepared in Example 4 was measured using acetaldehyde and α-ketobutyrate. A reaction solution composed of 100 mM glycine-NaOH (pH 9), 50 mM acetoaldehyde, 250 mM α-ketobutyrate, 1 mM MgCl2 and 0.1 mg/ml PtALD was prepared, and it was incubated at 33° C. for 16 hours. The resulting reaction solution was subjected to ultrafiltration with an ultrafiltration membrane, Microcon 10 (Amicon) for a fraction molecular weight of 10000. 10 μl of the filtrate was diluted in 200 μl of 50% acetonitrile/0.1% aqueous ammonia solution followed by ESI-MS analysis.

[5] = Aldol condensation activity of pyruvic acid for various substrates using PtALD (ESI-MS); assay type: biochemical; settings: 50 mM substrate, 250 mM sodium pyruvate, 0.1 mg/ml PtALD, pH 9, 33° C., 2 hours; substrates of Tables 11 and 12
Description: The aldol condensation activity of pyruvic acid was measured for the various substrates shown in Table 11 using the PtALD produced in Example 4. A reaction solution was prepared composed of 100 mM glycine-NaOH (pH 9), 50 mM substrate, 250 mM sodium pyruvate, 1 mM MgCl2 and 0.1 mg/ml PtALD, and incubated at 33° C. for 2 hours. The resulting reaction solution was subjected to ultrafiltration with an ultrafiltration membrane, Microcon 10 (Amicon) for a fraction molecular weight of 10000. 2 μl of the filtrate was diluted in 200 μl of 50% acetonitrile/0.1% aqueous ammonia solution followed by ESI-MS analysis.

[6] = Enzymatic properties of PtALD: kinetics constants when using PHOG as substrate; assay type: biochemical
Description: Basic reaction conditions: 50 mM Hepes-KOH (pH 8.0), 2 mM PHOG, 5 mM MgCl2, 3 mM KPB (pH 8), 16 U/ml of lactate dehydrogenase, measure a optical absorbance at 340 nm measured at 30° C.
The aldolase activity increased by 2.7 times as compared with a non-addition lot following addition of 1 mM MgCl2, and increased 2 times as compared with a non-addition lot following addition of 5 mM KPB.

[7] = pH stability of PtALD (residual activity); assay type: physicochemical; settings: 37° C., 30 minutes, 100 mM buffers
Description: pH stability was measured over a range of pH 3 to pH 11. The buffers used for measurement were as follows: sodium acetate buffer (pH 3, 4, 5, 6), potassium phosphate buffer (pH 6, 6.5, 7, 7.5), Tris-HCl buffer (pH 7, 7.5, 8, 8.5), glycine-NaOH buffer (pH 9, 9.5, 10), CAPS-NaOH buffer (pH 10, 10.5, 11). The residual activity after incubating PtALD at 37° C. for 30 minutes in each of the buffer solutions at a concentration of 100 mM was measured under the basic reaction conditions.

Molecule | IHOG formed ([1]; MgCl2 1 mM) | IHOG formed ([1]; MgCl2 5 mM) | optimum pH [2] | temperature stability [3] | Formation of aldol condensate from acetaldehyde and α-ketobutyrate [4] | Formation of pyruvic acid aldol condensates for various substrates [5] | Increase of aldolase activity as compared with a non-addition lot ([6]; addition of 1 mM MgCl2) | Increase of aldolase activity as compared with a non-addition lot ([6]; addition of 5 mM KPB) | Ka (for KPi) ([6]; pH 8.0, 30° C.) | Vmax (for PHOG) ([6]; pH 8.0, 30° C.) | Km ([6]; pH 8.0, 30° C., read-out: Km (for MgCl2)) | Km ([6]; pH 8.0, 30° C., read-out: Km (for PHOG)) | pH stability (pH) [7]
PtALD: aldolase derived from Pseudomonas taetrolens ATCC4683, amino acid sequence SEQ ID No: 2 or 3; recombinant, purified in Example 4 (protein, listed as Pseudomonas taetrolens) MEVAMSLPGSRIYPSPPQAPRSLLDAFQNVVTPHISDNLGRHIGARGLTRYNHTGKLVGTALTVKTRPGDNLYIYKALTLIEPGHVLVIDAQGDATNAVIGELIKLYAQQRGCVGFVVDGAIRDVASFEDTPCYARSVVHCGPYKSGPGEINVPVSIGGMIINPGDIIVGDEDGLVAFSPDHAEQVLVKAREHDAHEQQVKAEIATGAIDQSWLDKVLEKAGLAN | 11.4 mM | 10.5 mM | about 9 | ≤ 70 °C | formation of the desired aldol condensate | the desired pyruvic acid aldol condensates were formed | 2.7 times | 2 times | 0.95 mM | 91.7 µmol/min/mg | 19 µM | 100 µM | ≥ 6
PcALD: aldolase derived from Pseudomonas coronafaciens strain AJ2791, amino acid sequence SEQ ID No: 16; recombinant, purified in Example 5 (protein, listed as Pseudomonas coronafaciens) MKCHSVIWFSAWPHPIISREKSHMTIGFRVLSAARKVSPEWVARYRDVPVANVSDSMNRMTAGGSRLRPMHRAGVLAGPALTVKARPGDNLMLHYAIDIAQPGDVIVVDAGGDLTNALIGEMMVAYAVKRGVAGIVINGAIRDAASIGAGDFPMFAAGVSHRGPYKDGPGEINVPIAIDGMVIEAGDLVIGDDDGLLCVPYDQVAEVYDRAAAKHHAEQKQLEQIAKGENDRSWVLESLKKKGCQLPE | 4.9 mM | 5.4 mM |  |  |  |  |  |  |  |  |  |  | 
